# Measurements as given in patent publication US20220098306A1 (published 2022).
# Where two headings read alike, the source gives them in different places.
# T1: B7H3 (antigen of the affinity statements) (human, UniProt Q5ZPR3 29-466)
# T1 chain: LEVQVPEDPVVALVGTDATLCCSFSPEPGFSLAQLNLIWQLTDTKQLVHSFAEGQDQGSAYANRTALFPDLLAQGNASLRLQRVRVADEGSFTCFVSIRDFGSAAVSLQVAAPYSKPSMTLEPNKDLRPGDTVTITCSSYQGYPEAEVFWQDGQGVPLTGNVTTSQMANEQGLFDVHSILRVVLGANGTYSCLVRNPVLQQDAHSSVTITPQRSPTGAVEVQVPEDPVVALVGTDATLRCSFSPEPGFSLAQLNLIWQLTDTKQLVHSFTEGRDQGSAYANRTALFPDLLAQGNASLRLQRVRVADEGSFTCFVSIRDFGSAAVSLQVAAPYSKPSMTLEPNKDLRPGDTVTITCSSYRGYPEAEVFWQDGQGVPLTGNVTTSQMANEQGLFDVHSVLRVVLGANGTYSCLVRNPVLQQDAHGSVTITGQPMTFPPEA
# Legend:
# [1] = molecular target: T2, CD28 (antigen of the affinity determinations) (human, UniProt P10747 19-152); experiment: -; scFv VHVL, 1+1 Fab-scFv-Fc
# CD28-Fc-His protein [2] = molecular target: T3, CD28-Fc-His protein (human, UniProt P10747 19-152); experiment: Octet; 1:1 Langmuir
# CD28-Fc-His protein [3] = molecular target: T3, CD28-Fc-His protein; experiment: Octet; Steady State
# [4] = molecular target: T2, CD28 (antigen of the affinity …); experiment: -; Fab, 2+1 CLC
# [5] = molecular target: T2, CD28 (antigen of the affinity …)
# [6] = molecular target: T1, B7H3 (antigen of the affinity …); experiment: -; monovalent KD
Kd [1],Kd (CD28-Fc-His protein [2]),Kd (CD28-Fc-His protein [3]),Kd [4],Binder,other results
–,790 nM,560 nM,–,XENP34389 (bispecific antibody) heavy 1: EVQLLESGGGLVQPGGSLRLSCAASGFTFSNYYMAWVRQAPGKGLEWVSSISTGGGSTYYRDSVKGRFTISRDNSKSTLYLQMNSLRAEDTAVYYCTTDLSAIAATPFAYWGQGTLVTVSSASTKGPSVFPLAPSSKSTSGGTAALGCLVKDYFPEPVTVSWNSGALTSGVHTFPAVLQSSGLYSLSSVVTVPSSSLGTQTYICNVNHKPSDTKVDKKVEPKSCDKTHTCPPCPAPPVAGPSVFLFPPKPKDTLMISRTPEVTCVVVDVKHEDPEVKFNWYVDGVEVHNAKTKPREEEYNSTYRVVSVLTVLHQDWLNGKEYKCKVSNKALPAPIEKTISKAKGQPREPQVYTLPPSREEMTKNQVSLTCDVSGFYPSDIAVEWESDGQPENNYKTTPPVLDSDGSFFLYSKLTVDKSRWEQGDVFSCSVMHEALHNHYTQKSLSLSPGK heavy 2: not shown light: DIQMTQSPSSLSASVGDRVTITCRASQNIYTSLAWYQQKPGKAPKLLIYNAHSLQTGIPSRFSGSGSGADFTLTISSLQPEDFATYFCQQYYSGLTFGSGTKLEIKRTVAAPSVFIFPPSDEQLKSGTASVVCLLNNFYPREAKVQWKVDNALQSGNSQESVTEQDSKDSTYSLSSTLTLSKADYEKHKVYACEVTHQGLSSPVTKSFNRGEC,–
–,–,–,200 nM,XENP37810 (bispecific antibody) heavy 1: EVQLLESGGGLVQPGGSLRLSCAASGFTFSSYYMSWVRQAPGKGLEWVSTISESGDSTYYADSVKGRFTISRDNSKNTLYLQMNSLRAEDTAVYYCAKSGPGLRQVGFDYWGQGTLVTVSSASTKGPSVFPLAPSSKSTSGGTAALGCLVKDYFPEPVTVSWNSGALTSGVHTFPAVLQSSGLYSLSSVVTVPSSSLGTQTYICNVNHKPSDTKVDKKVEPKSCDKTHTCPPCPAPPVAGPSVFLFPPKPKDTLMISRTPEVTCVVVDVKHEDPEVKFNWYVDGVEVHNAKTKPREEEYNSTYRVVSVLTVLHQDWLNGKEYKCKVSNKALPAPIEKTISKAKGQPREPQVYTLPPSREEMTKNQVSLTCDVSGFYPSDIAVEWESDGQPENNYKTTPPVLDSDGSFFLYSKLTVDKSRWEQGDVFSCSVLHEALHSHYTQKSLSLSPGK heavy 2: QVQLVQSGAEVKKPGASVKVSCKASGYIFTNHYMHWVRQAPGQGLEWMGIISPSAGSTDYAQKFQGRVTMTRDTSTSTVYMELSSLRSEDTAVYYCARGGGSSPRLDYWGQGTLVTVSSASTKGPSVFPLAPSSKSTSGGTAALGCLVKDYFPEPVTVSWNSGALTSGVHTFPAVLQSSGLYSLSSVVTVPSSSLGTQTYICNVNHKPSNTKVDKKVEPKSCGKPGSGKPGSQVQLVQSGAEVKKPGASVKVSCKASGYIFTNHYMHWVRQAPGQGLEWMGIISPSAGSTDYAQKFQGRVTMTRDTSTSTVYMELSSLRSEDTAVYYCARGGGSSPRLDYWGQGTLVTVSSASTKGPSVFPLAPSSKSTSGGTAALGCLVKDYFPEPVTVSWNSGALTSGVHTFPAVLQSSGLYSLSSVVTVPSSSLGTQTYICNVNHKPSNTKVDKKVEPKSCDKTHTCPPCPAPPVAGPSVFLFPPKPKDTLMISRTPEVTCVVVDVKHEDPEVKFNWYVDGVEVHNAKTKPREEQYNSTYRVVSVLTVLHQDWLNGKEYKCKVSNKALPAPIEKTISKAKGQPREPQVYTLPPSREQMTKNQVKLTCLVKGFYPSDIAVEWESNGQPENNYKTTPPVLDSDGSFFLYSKLTVDKSRWQQGNVFSCSVLHEALHSHYTQKSLSLSPGK light: not shown,–
–,–,–,232 nM,XENP37808 (bispecific antibody) heavy 1: EVQLLESGGGLVQPGGSLRLSCAASGFTFSSYYMSWVRQAPGKGLEWVSTISGSGDSTYYADSVKGRFTISRDNSKNTLYLQMNSLRAEDTAVYYCAKSGPGLRQVGFDYWGQGTLVTVSSASTKGPSVFPLAPSSKSTSGGTAALGCLVKDYFPEPVTVSWNSGALTSGVHTFPAVLQSSGLYSLSSVVTVPSSSLGTQTYICNVNHKPSDTKVDKKVEPKSCDKTHTCPPCPAPPVAGPSVFLFPPKPKDTLMISRTPEVTCVVVDVKHEDPEVKFNWYVDGVEVHNAKTKPREEEYNSTYRVVSVLTVLHQDWLNGKEYKCKVSNKALPAPIEKTISKAKGQPREPQVYTLPPSREEMTKNQVSLTCDVSGFYPSDIAVEWESDGQPENNYKTTPPVLDSDGSFFLYSKLTVDKSRWEQGDVFSCSVLHEALHSHYTQKSLSLSPGK heavy 2: QVQLVQSGAEVKKPGASVKVSCKASGYIFTNNYMHWVRQAPGQGLEWMGIISPSVGRTAYAQKFQGRVTMTRDTSTSTVYMELSSLRSEDTAVYYCARGGGSSPRLDYWGQGTLVTVSSASTKGPSVFPLAPSSKSTSGGTAALGCLVKDYFPEPVTVSWNSGALTSGVHTFPAVLQSSGLYSLSSVVTVPSSSLGTQTYICNVNHKPSNTKVDKKVEPKSCGKPGSGKPGSQVQLVQSGAEVKKPGASVKVSCKASGYIFTNNYMHWVRQAPGQGLEWMGIISPSVGRTAYAQKFQGRVTMTRDTSTSTVYMELSSLRSEDTAVYYCARGGGSSPRLDYWGQGTLVTVSSASTKGPSVFPLAPSSKSTSGGTAALGCLVKDYFPEPVTVSWNSGALTSGVHTFPAVLQSSGLYSLSSVVTVPSSSLGTQTYICNVNHKPSNTKVDKKVEPKSCDKTHTCPPCPAPPVAGPSVFLFPPKPKDTLMISRTPEVTCVVVDVKHEDPEVKFNWYVDGVEVHNAKTKPREEQYNSTYRVVSVLTVLHQDWLNGKEYKCKVSNKALPAPIEKTISKAKGQPREPQVYTLPPSREQMTKNQVKLTCLVKGFYPSDIAVEWESNGQPENNYKTTPPVLDSDGSFFLYSKLTVDKSRWQQGNVFSCSVLHEALHSHYTQKSLSLSPGK light: not shown,Kd [5]: 230 nM; Kd [6]: 7.6 nM

# Further lines, the binder ahead of its results:
Binder,Kd [1],Kd (CD28-Fc-His protein [2]),Kd (CD28-Fc-His protein [3]),Kd [4],other results
"H1_L1.71 (antibody, V domains shown) VH: EVQLLESGGGLVQPGGSLRLSCAASGFTFSSYAMSWVRQAPGKGLEWVSTISGSGDSTYYADSVKGRFTISRDNSKNTLYLQMNSLRAEDTAVYYCAKSGPGLRQVGFDYWGQGTLVTVSS VL: not shown",180 nM,–,–,–,–
"H1.1_L1.71 (antibody, V domains shown) VH: EVQLLESGGGLVQPGGSLRLSCAASGFTFSSYYMSWVRQAPGKGLEWVSTISGSGDSTYYADSVKGRFTISRDNSKNTLYLQMNSLRAEDTAVYYCAKSGPGLRQVGFDYWGQGTLVTVSS VL: not shown",91.6 nM,–,–,–,–
XENP34339 (bispecific antibody) heavy 1: EVQLLESGGGLVQPGGSLRLSCAASGFTFSSYYMSWVRQAPGKGLEWVSTISESGDSTYYADSVKGRFTISRDNSKNTLYLQMNSLRAEDTAVYYCAKSGPGLRQVGFDYWGQGTLVTVSSASTKGPSVFPLAPSSKSTSGGTAALGCLVKDYFPEPVTVSWNSGALTSGVHTFPAVLQSSGLYSLSSVVTVPSSSLGTQTYICNVNHKPSDTKVDKKVEPKSCDKTHTCPPCPAPPVAGPSVFLFPPKPKDTLMISRTPEVTCVVVDVKHEDPEVKFNWYVDGVEVHNAKTKPREEEYNSTYRVVSVLTVLHQDWLNGKEYKCKVSNKALPAPIEKTISKAKGQPREPQVYTLPPSREEMTKNQVSLTCDVSGFYPSDIAVEWESDGQPENNYKTTPPVLDSDGSFFLYSKLTVDKSRWEQGDVFSCSVMHEALHNHYTQKSLSLSPGK heavy 2: QVQLVQSGAEVKKPGASVKVSCKASGYIFTNNYMHWVRQAPGQGLEWMGIISPSVGRTAYAQKFQGRVTMTRDTSTSTVYMELSSLRSEDTAVYYCARGGGSSPRLDYWGQGTLVTVSSASTKGPSVFPLAPSSKSTSGGTAALGCLVKDYFPEPVTVSWNSGALTSGVHTFPAVLQSSGLYSLSSVVTVPSSSLGTQTYICNVNHKPSNTKVDKKVEPKSCGKPGSGKPGSQVQLVQSGAEVKKPGASVKVSCKASGYIFTNNYMHWVRQAPGQGLEWMGIISPSVGRTAYAQKFQGRVTMTRDTSTSTVYMELSSLRSEDTAVYYCARGGGSSPRLDYWGQGTLVTVSSASTKGPSVFPLAPSSKSTSGGTAALGCLVKDYFPEPVTVSWNSGALTSGVHTFPAVLQSSGLYSLSSVVTVPSSSLGTQTYICNVNHKPSNTKVDKKVEPKSCDKTHTCPPCPAPPVAGPSVFLFPPKPKDTLMISRTPEVTCVVVDVKHEDPEVKFNWYVDGVEVHNAKTKPREEQYNSTYRVVSVLTVLHQDWLNGKEYKCKVSNKALPAPIEKTISKAKGQPREPQVYTLPPSREQMTKNQVKLTCLVKGFYPSDIAVEWESNGQPENNYKTTPPVLDSDGSFFLYSKLTVDKSRWQQGNVFSCSVMHEALHNHYTQKSLSLSPGK light: not shown,–,96 nM,150 nM,–,–
